This passage reports Km and kcat results from publication PMC4336777.

Substrate in this data set: CC(=O)N1c2ccc(O)cc2Oc2cc(O)ccc21
As to the kind of experiment: purified protein, by the assay type.

Where [1] appears, read: other: Lineweaver-Burk curves in the absence of inhibitor.
Where [2] appears, read: other: initial velocities, plate reader, MPO 23 nM, H2O2 22 μM, error 2 x SD.

B1: Myeloperoxidase (MPO) (Homo sapiens) (protein)
chain 1: not shown
chain 2: VNCETSCVQQPPCFPLKIPPNDPRIKNQADCIPFFRSCPACPGSNITIRNQINALTSFVDASMVYGSEEPLARNLRNMSNQLGLLAVNQRFQDNGRALLPFDNLHDDPCLLTNRSARIPCFLAGDTRSSEMPELTSMHTLLLREHNRLATELKSLNPRWDGERLYQEARKIVGAMVQIITYRDYLPLVLGPTAMRKYLPTYRSYNDSVDPRIANVFTNAFRYGHTLIQPFMFRLDNRYQPMEPNPRVPLSRVFFASWRVVLEGGIDPILRGLMATPAKLNRQNQIAVDEIRERLFEQVMRIGLDLPALNMQRSRDHGLPGYNAWRRFCGLPQPETVGQLGTVLRNLKLARKLMEQYGTPNNIDIWMGGVSEPLKRKGRVGPLLACIIGTQFRKLRDGDRFWWENEGVFSMQQRQALAQISLPRIICDNTGITTVSKNNIFMSNSYPRDFVNCSTLPALNLASWREAS
Consider B1, for which, under setting [1], the Km – broadly, the concentration of substrate that gives half-maximal velocity – came to 28.8 µM; the kcat (in general, the number of substrate molecules converted per active site and unit of time at saturation) came to 207 s⁻¹. Under setting [2], the Km is 31 ± 4 µM and the kcat was found to be 186 ± 6 s⁻¹.
